In US20060292657A1, “Phex substrates and methods using same” (priority 2003, published 2006):
Values joined by “and” are separate entries in the source; they are usually repeats but may differ in a detail not shown here. Equal entries are not always repeated. Square brackets hold non-standard residues; d marks the D form. Peptide text beside a SMILES is read from it. * marks the point of attachment. EDDnp = O=[N+]([O-])c1ccc(NCCN*)c([N+](=O)[O-])c1; 2Abz = Nc1ccccc1C(=O)O

Columns and labels:
[1] = biological target: T1, secPHEX (Homo sapiens, UniProt P78562); assay: secPHEX activity with NEP-specific substrate and inhibitor; format: biochemical; settings: 10 μM substrate, 30 minutes
T1 construct: pure soluble form of PHEX (secPHEX); made in house
T1 sequence (P78562 46-749 limits assumed): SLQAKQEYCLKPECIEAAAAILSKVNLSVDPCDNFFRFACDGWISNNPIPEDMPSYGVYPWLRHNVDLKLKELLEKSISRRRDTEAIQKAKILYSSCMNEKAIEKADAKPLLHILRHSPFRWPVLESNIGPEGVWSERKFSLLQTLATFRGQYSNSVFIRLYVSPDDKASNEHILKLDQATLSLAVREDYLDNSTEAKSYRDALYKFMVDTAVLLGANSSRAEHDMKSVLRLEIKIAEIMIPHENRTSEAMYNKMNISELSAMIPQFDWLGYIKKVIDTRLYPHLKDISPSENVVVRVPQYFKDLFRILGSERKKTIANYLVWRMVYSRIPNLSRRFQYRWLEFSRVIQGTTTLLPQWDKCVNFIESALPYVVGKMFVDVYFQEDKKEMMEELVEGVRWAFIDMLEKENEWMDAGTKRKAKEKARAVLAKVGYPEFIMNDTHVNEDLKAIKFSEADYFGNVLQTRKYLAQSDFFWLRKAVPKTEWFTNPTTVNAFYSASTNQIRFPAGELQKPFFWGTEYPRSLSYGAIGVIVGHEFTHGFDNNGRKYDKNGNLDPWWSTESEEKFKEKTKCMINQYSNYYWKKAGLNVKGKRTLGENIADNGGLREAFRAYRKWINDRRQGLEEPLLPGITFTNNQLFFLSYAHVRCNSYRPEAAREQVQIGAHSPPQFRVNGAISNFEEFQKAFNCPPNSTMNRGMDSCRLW
Protocol: (§1) FIG. 4 graphically illustrates the activity of PHEX in the presence of NEP-specific substrate and inhibitor. NEP, secPHEX and membrane-bound PHEX (mPHEX) activities were measured after 30 minutes of incubation in presence of either 10 μM Abz-DRRL-EDDnp (SEQ ID NO:8) (A) or 10 μM Abz-GFSDYK(Dnp)-OH (SEQ ID NO:3) (B). Fluorescence detection (AFU) at γem=420 nm and γex=320 nm was determined as described under the heading “Experimental Procedures” below. When present, thiorphan, a NEP-specific inhibitor, was at a concentration of 10^−6 M. Data are a compilation of three different experiments;
(§2) The activities of membrane-bound PHEX and secPHEX were also compared with the NEP-specific substrate Abz-DRRL-EDDnp (SEQ ID NO:8) (46).

[2] = biological target: T2, membrane-bound PHEX (mPHEX) (Homo sapiens, UniProt P78562); assay: Membrane-bound PHEX activity with NEP-specific substrate and inhibitor; format: biochemical; settings: 10 μM substrate, 30 minutes
T2 construct: expressed in transfected cells; host or cells: LLC-PK1 (porcine kidney cells)
T2 sequence (P78562 whole entry): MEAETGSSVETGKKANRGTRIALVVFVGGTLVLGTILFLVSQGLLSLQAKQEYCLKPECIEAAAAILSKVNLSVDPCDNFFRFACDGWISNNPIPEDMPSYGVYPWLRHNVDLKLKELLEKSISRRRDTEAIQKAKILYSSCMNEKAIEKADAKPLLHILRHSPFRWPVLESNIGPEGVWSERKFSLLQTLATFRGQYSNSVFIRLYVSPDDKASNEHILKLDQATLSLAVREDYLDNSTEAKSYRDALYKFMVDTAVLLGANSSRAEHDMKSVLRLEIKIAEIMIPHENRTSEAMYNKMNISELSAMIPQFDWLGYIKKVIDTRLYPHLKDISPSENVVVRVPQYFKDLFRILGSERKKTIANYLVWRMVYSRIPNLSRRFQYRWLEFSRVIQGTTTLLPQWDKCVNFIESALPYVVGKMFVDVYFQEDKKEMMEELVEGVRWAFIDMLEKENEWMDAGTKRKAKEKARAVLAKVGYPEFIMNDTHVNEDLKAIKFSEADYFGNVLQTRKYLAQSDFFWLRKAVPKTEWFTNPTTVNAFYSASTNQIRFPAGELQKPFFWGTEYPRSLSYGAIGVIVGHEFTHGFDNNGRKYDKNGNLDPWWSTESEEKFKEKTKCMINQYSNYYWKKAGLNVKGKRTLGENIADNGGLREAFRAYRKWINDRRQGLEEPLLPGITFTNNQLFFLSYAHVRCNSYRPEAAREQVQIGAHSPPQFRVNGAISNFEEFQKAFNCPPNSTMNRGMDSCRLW
Protocol: as §1, §2

[3] = biological target: T3, Abz-D125-HLSDTSTQ-EDDnp
T3 chain: DHLSDTSTQ

[4] = biological target: T4, Abz-R506-RDDSSEQ-EDDnp
T4 chain: RRDDSSEQ

[5] = biological target: T5, Abz-GFSEYK(Dnp)-NH2
T5 chain: GFSEYK

[6] = biological target: T6, Abz-R441-GLDNEIQ-EDDnp
T6 chain: RGLDNEIQ

[7] = biological target: T7, Abz-G386-SSDAAEQ-EDDnp
T7 chain: GSSDAAEQ

[8] = biological target: T8, Abz-GP197-QRDSQAQ-EDDnp
T8 chain: GPQRDSQAQ

[9] = biological target: T9, Abz-L94-MMDFRGQ-EDDnp
T9 chain: LMMDFRGQ

[10] = biological target: T10, Abz-T294-HLDTKKQ-EDDnp
T10 chain: THLDTKKQ

[11] = biological target: T11, Abz-N449-EMDSFNQ-EDDnp
T11 chain: NEMDSFNQ

[12] = biological target: T12, Abz-N122-GYDVYHQ-EDDnp
T12 chain: NGYDVYHQ

[13] = biological target: T13, Abz-I232-PSDFEGQ-EDDnp
T13 chain: IPSDFEGQ

[14] = biological target: T14, Abz-GFSDYK(Dnp)-OH
T14 chain: GFSDYK

[15] = biological target: T15, Abz-L134-ELDSRQ-EDDnp
T15 chain: LELDSRQ

[16] = biological target: T16, Abz-GFSDYK(Dnp)-NH2
T16 chain: GFSDYK

[17] = biological target: T17, Abz-GFSDYQ-EDDnp
T17 chain: GFSDYQ

[18] = biological target: T18, Abz-G337-SNDIMGQ-EDDnp
T18 chain: GSNDIMGQ

[19] = biological target: T19, Abz-R175-RHTQSAEDDSERQ-EDDnp
T19 chain: RRHTQSAEDDSERQ

[20] = biological target: T20, Abz-GFSEYK(Dnp)-OH
T20 chain: GFSEYK

[21] = biological target: T21, Abz-R76-SEDAGFQ-EDDnp
T21 chain: RSEDAGFQ

[22] = biological target: T22, Abz-DRRL-EDDnp
T22 chain: DRRL

[23] = biological target: T23, Abz-S513-SDSGSQ-EDDnp
T23 chain: SSDSGSQ

[24] = biological target: T24, Abz-R175-RHTRSAEDDSERQ-EDDnp
T24 chain: RRHTRSAEDDSERQ

[25] = biological target: T25, Abz-S212-AEDNSPQ-EDDnp
T25 chain: SAEDNSPQ

[26] = biological target: T26, Abz-A110-WLDSGVQ-EDDnp
T26 chain: AWLDSGVQ

[27] = substrate: Nc1ccccc1C(=O)NCC(=O)N[C@@H](Cc1ccccc1)C(=O)N[C@@H](CO)C(=O)N[C@@H](CC(=O)O)C(=O)N[C@@H](Cc1ccc(O)cc1)C(=O)N[C@@H](CCCCNc1ccc([N+](=O)[O-])cc1[N+](=O)[O-])C(=O)O; assay: Hydrolysis by secPHEX added to membranes of vector-transfected LLC-PK1 cells; format: biochemical, human; settings: other: secPHEX added to membranes from cells transfected with vector alone, 0.01 M Bis-Tris pH 5.5, 150 mM NaCl, 37° C.
Protocol: FIG. 3 graphically illustrates hydrolysis of Abz-GFSDYK(Dnp)-OH (SEQ ID NO:3) by secPHEX and membrane-bound PHEX. Abz-GFSDYK(Dnp)-OH (SEQ ID NO:3) at a concentration of 10 μM was incubated at 37° C., in 0.01 M Bis-Tris buffer, pH 5.5 with 150 mM NaCl, containing 2,1 μg total proteins from membranes extracted from LLC-PK1 transfected with vector alone (notes as “A” on the figure), or 2,1 μg total proteins from membranes extracted from LLC-PK1 transfected with the membrane-bound form of human PHEX (noted as “□” on the figure); or 2,1 μg total proteins from membranes extracted from LLC-PK1 transfected with vector alone to which 500 ng purified secPHEX were added (noted as “o” on the figure). Fluorescence was monitored every 4 min for a period of 28 min. Amounts of secPHEX or membrane-bound PHEX (mPHEX) in the enzymatic reactions were evaluated by immunoblotting (Inset). Mock: cells transfected with vector alone;
The human recombinant secPHEX was obtained following the procedure previously described (17, WO 00/50580). Purified secPHEX concentration was determined using the Bradford method (DC protein assay kit; Bio-Rad, Mississauga, ON, Canada). […] Insoluble material was pelleted by centrifugation at 10,000 g for 15 min and protein concentrations of the supernatant determined using the Bradford method described above. PHEX amounts were evaluated by immunoblotting as described previously (17). […]

For `CC(C)C[C@H](NC(=O)[C@H](CCCNC(=N)N)NC(=O)[C@H](CCCNC(=N)N)NC(=O)[C@H](CC(=O)O)NC(=O)c1ccccc1N)C(=O)NCCNc1ccc([N+](=O)[O-])cc1[N+](=O)[O-]` [Abz-DRRL-EDDnp] (H-[2Abz]DRRL-EDDnp), the “hydrolysis of NEP-specific substrate” value [1] was “Neither enzyme hydrolyzed this substrate” and the “hydrolysis of NEP-specific substrate” value [2] was “Neither enzyme hydrolyzed this substrate”.

B1: human recombinant secPHEX (pure soluble form of PHEX) (protein)
chain: T1 sequence (P78562 46-749 limits assumed)
Work on B1 yielded a Km [3] of 1.3 µM, a kcat [3] of 0.1 s⁻¹ and a kcat/Km [3] of 77000 M⁻¹ s⁻¹. The Km [4] was 5.3 µM, the kcat [4] was 0.5 s⁻¹ and the kcat/Km [4] was 94300 M⁻¹ s⁻¹. The “hydrolysis by PHEX” value [5] was “Resistant”, the Km [6] was 7 µM and the kcat [6] was 0.03 s⁻¹. It also gave a kcat/Km [6] of 4300 M⁻¹ s⁻¹, a Km [7] of 2.4 µM and a kcat [7] of 0.3 s⁻¹. The kcat/Km [7] was 125000 M⁻¹ s⁻¹, the Km [8] was 47 µM and the kcat [8] was 0.2 s⁻¹. It also gave a kcat/Km [8] of 4300 M⁻¹ s⁻¹, a Km [9] of 17 µM and a kcat [9] of 0.8 s⁻¹. For the same molecule, the kcat/Km [9] was 45000 M⁻¹ s⁻¹, the Km [10] was 15 µM and the kcat [10] was 0.02 s⁻¹. It also gave a kcat/Km [10] of 1300 M⁻¹ s⁻¹, a Km [11] of 38 µM and a kcat [11] of 0.3 s⁻¹. For the same molecule, the kcat/Km [11] was 7900 M⁻¹ s⁻¹, the Km [12] was 9 µM and the kcat [12] was 0.01 s⁻¹. For the same molecule, the kcat/Km [12] was 1100 M⁻¹ s⁻¹, the kcat/Km (pseudo-first order conditions) [13] was 80000 M⁻¹ s⁻¹ and the Km [14] was 3 µM and 5×10^-6 M and 10×10^-6 M, for secPHEX and membrane-bound PHEX, respectively. The kcat [14] was 0.5 s⁻¹, the kcat/Km [14] was 167000 M⁻¹ s⁻¹ and the “substrate hydrolysis (fluorescence)” value [14] was “degradation of the substrate was observed”. The Km [15] was 0.9 µM, the kcat [15] was 0.05 s⁻¹ and the kcat/Km [15] was 55500 M⁻¹ s⁻¹. For the same molecule, the Km [16] was 53.2 µM, the “fold decrease in catalytic efficiency against Abz-GFSDYK(Dnp)-OH” value [16] was “a 6-fold decrease in catalytic efficiency due to its low affinity for the enzyme” and the kcat [16] was 1.3 s⁻¹. It also gave a kcat/Km [16] of 24400 M⁻¹ s⁻¹, a Km [17] of 13.3 µM and a kcat [17] of 0.6 s⁻¹. For the same molecule, the kcat/Km [17] was 45100 M⁻¹ s⁻¹, the Km [18] was 13 µM and the kcat [18] was 0.01 s⁻¹. The kcat/Km [18] was 800 M⁻¹ s⁻¹, the Km [19] was 1.7 µM and the kcat [19] was 0.15 s⁻¹. For the same molecule, the kcat/Km [19] was 88200 M⁻¹ s⁻¹, the kcat/Km (pseudo first-order conditions) [20] was 9000 M⁻¹ s⁻¹ and the Km [21] was 4.1 µM. For the same molecule, the kcat [21] was 0.06 s⁻¹, the kcat/Km [21] was 14600 M⁻¹ s⁻¹ and the “substrate hydrolysis (fluorescence)” value [22] was “Neither enzyme hydrolyzed this substrate”. For the same molecule, the Km [23] was 31.6 µM, the kcat [23] was 0.2 s⁻¹ and the kcat/Km [23] was 7100 M⁻¹ s⁻¹. For the same molecule, the Km [24] was 3 µM, the kcat [24] was 0.2 s⁻¹ and the kcat/Km [24] was 66700 M⁻¹ s⁻¹. For the same molecule, the Km [25] was 22 µM, the kcat [25] was 0.3 s⁻¹ and the kcat/Km [25] was 13600 M⁻¹ s⁻¹. The Km [26] was 1.5 µM, the kcat [26] was 0.04 s⁻¹ and the kcat/Km [26] was 26700 M⁻¹ s⁻¹.

B2: secPHEX (Homo sapiens) (protein)
chain: T1 sequence (P78562 46-749 limits assumed)
notes: pure soluble form of PHEX (secPHEX); made in house
B2 showed a Km [27] of 5 µM.
